The assay has as its target T1, Tse2 (type VI secretion exported protein 2) with glycogen synthase kinase (GSK) tag (Pseudomonas aeruginosa PAO1, UniProt Q9I0E0 1-158).
T1 construct: Toxin as detected in the co-immunoprecipitation in P. aeruginosa lysate; it is placed last here only by default; also called PA2702; not shown: GSK tag used for detection
T1 sequence: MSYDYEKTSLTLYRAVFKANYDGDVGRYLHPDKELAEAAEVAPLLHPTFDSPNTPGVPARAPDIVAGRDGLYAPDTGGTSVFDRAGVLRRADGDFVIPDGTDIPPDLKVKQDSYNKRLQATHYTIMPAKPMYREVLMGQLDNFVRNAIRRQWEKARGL
Kind of assay: co-immunoprecipitation from P. aeruginosa lysate with anti-VSV-G agarose beads, Western blot for GSK-tagged Tse2.

B1: Tsi2-V (type VI secretion immunity protein 2 fused to the vesicular stomatitis virus G epitope) (other)
chain: MNLKPQTLMVAIQCVAARTRELDAQLQNDDPQNAAELEQLLVGYDLAADDLKNAYEQALGQYSGLPPYDRLIEEPAS
Consider B1, for which the binding result was “binds”.
